Laboratory results as given in paper PMC11602996, “Discovery, characterization, and structure of a cofactor-independent histidine racemase from the oral pathogen Fusobacterium nucleatum” (The Journal of Biological Chemistry, 2024).

B1: HisR from F. nucleatum ATCC 23726 (Fusobacterium nucleatum subsp. nucleatum ATCC 23726) (protein)
chain: MDGKVQVLDFIKINPAGNITILIDNFDIYDKNIPKLSEEIMKETNLYAEQVGFIKEKHLQMMGGEFCGNASRSFASLLAFRDKDFSEQKNYSITCSGESEVLDVDVRTDGAKNKFLAKIKMPKFISLEEISIDEYKLGLVRFSGISHFIFNIKENKETSFENIIDLVKKYLSNEDYSAFGIMFFDKDNLSMKPYVYVKELESGIYENSCASGTTALGYYLKKYKNLDRAKVVQPNGWLEYIIENDEMYIDGPVEIVAEGKVYI
B2: HisR (FN1732, predicted DapF) from F. nucleatum ATCC 25586 (Fusobacterium nucleatum subsp. nucleatum ATCC 25586) (protein)
chain: MDRKVQVLDFIKINPAGNITILIDNFDIYDKNIPKLSEEIMKETNLYAEQVGFIKDSHLQMMGGEFCGNASRAFASLLAFRDKDFSKQKNYNITCSGESKVLDVDVRNDGAKNKFLAKIKMPKFLSLEEINVDEYKLGLVRFSGINHFIFNIKENKETSFENIIDLVKKYLSNEEYSAFGIMFFDSDNLSMKPYVYVKEVGSGVYENSCASGTTALGYYLKKCKNLDRAKIVQPNGWLEYIIENDEMYIDGPVEIIAEGKIYIGK
notes: C-terminal hexahistidine tag, codon-optimized gene in pET-24b(+), expressed in E. coli BL21(DE3), Ni-NTA purified; homodimer

Assays:
purified protein [1] = substrate: N[C@H](Cc1c[nH]cn1)C(=O)O; assay: purified protein; format: biochemical, Fusobacterium nucleatum; settings: 20 mM NaH2PO4, 100 mM NaCl, pH 7.5, 25 °C
purified protein [2] = substrate: N[C@@H](Cc1c[nH]cn1)C(=O)O; assay: purified protein; format: biochemical, Fusobacterium nucleatum; settings: 20 mM NaH2PO4, 100 mM NaCl, pH 7.5, 25 °C

Row | Protein | Km (purified protein [1]) [mM] | kcat (purified protein [1]) [s⁻¹] | kcat/Km (purified protein [1]) [M⁻¹ s⁻¹] | Km (purified protein [2]) [mM] | kcat (purified protein [2]) [s⁻¹] | kcat/Km (purified protein [2]) [M⁻¹ s⁻¹]
1 | B1 | 18 | 64 | 4000 | 5 | 42 | 9000
2 | B2 | 24 | 250 | 10000 | 4 | 74 | 20000
